Positions of bridges follow the written chain, without caps; N, C: chain ends. No end group written: not given here.
What was measured:
hK2 [1] = biological target: T1, hK2 (Homo sapiens, UniProt P20151); experiment: Effect of the peptides on the enzyme activity of hK2 (chromogenic substrate S-2302); type: biochemical; conditions: for inhibition (percent inhibition of hK2): enzymatic activity of hK2, chromogenic substrate, 405 nm; for inhibition of hK2 enzyme activity: 0.17 μM hK2, 100-fold molar excess of peptide; for effect on the enzyme activity of hK2: incubation of hK2 with synthetic peptide (FIG. 2)
T1 construct: made in house
T1 sequence (P20151 25-261): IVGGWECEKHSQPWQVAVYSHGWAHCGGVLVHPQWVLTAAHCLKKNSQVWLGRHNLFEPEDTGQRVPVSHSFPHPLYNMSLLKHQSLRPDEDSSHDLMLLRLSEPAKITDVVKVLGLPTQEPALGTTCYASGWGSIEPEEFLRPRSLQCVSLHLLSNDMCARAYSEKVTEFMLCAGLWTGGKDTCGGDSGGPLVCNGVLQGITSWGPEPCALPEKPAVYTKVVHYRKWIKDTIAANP
Method: “Inhibition”, as used in the present context, stands for an inhibitory action on the proteolytic activity of hK2.
(§1) The effect of the peptides on the enzyme activity of hK2 was studied by using the chromogenic substrate S-2302 (H-D-Pro-Phe-Arg-pNA). HK2 (0.17 μM) was incubated with a 100-1000-fold molar excess of synthetic peptides in 20 mM Tris-buffer pH 8.0 containing 0.1% BSA for 30 minutes at room temperature. After addition of the substrate to a final concentration of 0.2 mM the absorbance was monitored at 405 nm at 5-10 min intervals for 1 h on a Victor 1420 Multilabel fluorometer (PerkinElmer-Wallac, Turku, Finland)

trypsin 2 = biological target: T2, trypsin 2 (Homo sapiens, UniProt P07478); experiment: Specificity: effect on enzyme activity of human trypsin 2 (substrate S-2222); type: biochemical
T2 construct: made in house
T2 sequence (P07478 24-247): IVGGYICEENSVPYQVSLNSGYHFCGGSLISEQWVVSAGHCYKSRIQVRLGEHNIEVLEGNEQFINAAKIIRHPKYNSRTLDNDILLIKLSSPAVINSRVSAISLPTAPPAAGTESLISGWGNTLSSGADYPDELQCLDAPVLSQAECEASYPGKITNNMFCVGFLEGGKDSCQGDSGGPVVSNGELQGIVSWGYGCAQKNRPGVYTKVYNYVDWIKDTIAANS
Method: as §1
(§2) The specificity of the peptides was analyzed by studying their effect on the activity of other serine proteases including α-chylotrypsin, bovine trypsin, human trypsin 1, trypsin 2 and trypsin 3, urokinase, thrombin, plasmin, plasma kallikrein and PSA. The assay was as described above for hK2 except that the substrate for PSA and α-chymotrypsin was S-2586 (MeO-Suc-Arg-Pro-Tyr-pNA)(Chromogenix), S-2444 for urokinase, S-2238 for thrombin, S-2403 for plasmin, S-2302 for plasma kallikrein and that for various forms of trypsin was S-2222 (CO-Ile-Glu-(OR)-Gly-Arg-pNA)(Chromogenix).

trypsin 3 = biological target: T3, trypsin 3 (Homo sapiens, UniProt P35030); experiment: Specificity: effect on enzyme activity of human trypsin 3 (substrate S-2222); type: biochemical
T3 construct: made in house
T3 sequence (P35030 1-304): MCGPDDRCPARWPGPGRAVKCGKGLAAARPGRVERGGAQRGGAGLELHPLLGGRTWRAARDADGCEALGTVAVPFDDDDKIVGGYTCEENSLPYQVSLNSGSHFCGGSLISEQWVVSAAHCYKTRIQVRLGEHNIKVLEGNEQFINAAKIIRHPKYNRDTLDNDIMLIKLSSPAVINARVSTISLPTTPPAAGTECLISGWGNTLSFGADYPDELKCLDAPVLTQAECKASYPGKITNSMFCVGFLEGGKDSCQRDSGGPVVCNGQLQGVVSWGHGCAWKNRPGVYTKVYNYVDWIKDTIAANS
Method: as §1, §2

α-chymotrypsin = experiment: Specificity: effect on enzyme activity of α-chymotrypsin (substrate S-2586); type: biochemical
Method: as §1, §2

human trypsin 1 = biological target: T4, human trypsin 1 (Homo sapiens, UniProt P07477); experiment: Specificity: effect on enzyme activity of human trypsin 1 (substrate S-2222); type: biochemical
T4 construct: made in house
Method: as §1, §2

hK2 [2] = biological target: T1, hK2; experiment: Cross-inhibition test: inhibition of phage binding to captured hK2 by synthetic peptides (IFMA); conditions: synthetic peptide 5 μM, FIG. 1
Method: The phage IFMA was performed essentially as described (Wu, Leinonen et al. 2000). In this assay, 50 ng of hK2 in 200 μL of assay buffer was captured onto wells coated with MAb 5E4. After washing, 2.5 μL of phage (10^8-10^9 infectious particles) and 200 μL assay buffer were added to wells. After incubation for 1 h, the wells were washed and filled with 200 μL of assay buffer containing 100 ng Eu-labeled anti-phage polyclonal antibody recognizing the M13 coat protein of the phage. After incubation for 60 min, the wells were washed 4 times, and enhancement solution (Perkin Elmer-Wallac) was added. The fluorescence was quantified with a Victor fluorometer in time resolved mode (Perkin Elmer-Wallac).
The relative binding sites of the peptides on hK2 were mapped by competition experiments with chemically synthesized and phage peptides. The protocol was based on the IFMA method described above except that phages and the synthetic peptides were reacted together with hK2. Briefly, each of the synthetic peptides at 5 μM concentration was added into the wells in which hK2 had been captured by MAb 5E4. After incubation for 30 min each phage was added. After 1 h incubation, the wells were washed and the assay was as described above for IFMA.

PSA = biological target: T5, PSA (Homo sapiens, UniProt P07288); experiment: Specificity: effect on enzyme activity of PSA (substrate S-2586); type: biochemical
T5 construct: PSA was purified from human seminal plasma as described (Zhang et al. 1995); from tissue; host or cells: human seminal plasma
T5 sequence (P07288 25-261): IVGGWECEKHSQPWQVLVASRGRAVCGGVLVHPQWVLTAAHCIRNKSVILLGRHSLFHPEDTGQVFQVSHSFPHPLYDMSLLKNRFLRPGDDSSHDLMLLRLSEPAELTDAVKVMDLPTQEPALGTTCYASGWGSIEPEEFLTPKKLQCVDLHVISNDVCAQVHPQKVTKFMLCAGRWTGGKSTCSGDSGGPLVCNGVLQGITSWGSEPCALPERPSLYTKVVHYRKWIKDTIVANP
Method: as §1, §2

plasma kallikrein = biological target: T6, plasma kallikrein (Homo sapiens, UniProt P03952); experiment: Specificity: effect on enzyme activity of plasma kallikrein (substrate S-2302); type: biochemical
T6 construct: Human plasmin, thrombin and plasma kallikrein were from Sigma; purchased Sigma
T6 sequence (P03952 20-390 partner limits assumed): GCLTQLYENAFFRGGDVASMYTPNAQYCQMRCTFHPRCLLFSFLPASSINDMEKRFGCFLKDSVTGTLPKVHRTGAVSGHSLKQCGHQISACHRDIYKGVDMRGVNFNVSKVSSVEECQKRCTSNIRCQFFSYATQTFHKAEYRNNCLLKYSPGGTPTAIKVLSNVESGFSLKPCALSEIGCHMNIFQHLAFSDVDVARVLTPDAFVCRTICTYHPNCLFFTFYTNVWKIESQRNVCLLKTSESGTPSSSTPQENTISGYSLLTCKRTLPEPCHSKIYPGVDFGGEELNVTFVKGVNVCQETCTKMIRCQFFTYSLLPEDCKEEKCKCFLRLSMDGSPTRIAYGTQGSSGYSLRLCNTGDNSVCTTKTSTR
T6 sequence (P03952 391-638 limits assumed): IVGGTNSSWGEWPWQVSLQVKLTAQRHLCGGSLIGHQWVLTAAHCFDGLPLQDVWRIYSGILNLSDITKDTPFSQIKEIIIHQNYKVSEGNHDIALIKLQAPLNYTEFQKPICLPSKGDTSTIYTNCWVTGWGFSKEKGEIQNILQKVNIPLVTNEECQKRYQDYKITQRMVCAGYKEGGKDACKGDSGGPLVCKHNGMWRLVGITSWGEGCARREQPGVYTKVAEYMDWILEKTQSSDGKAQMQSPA
Method: as §1, §2

urokinase = urokinase (Homo sapiens, UniProt P00749); experiment: Specificity: effect on enzyme activity of urokinase (substrate S-2444); type: biochemical
Method: as §1, §2

bovine trypsin = biological target: T7, bovine trypsin (Bos taurus, UniProt P00760); experiment: Specificity: effect on enzyme activity of bovine trypsin (substrate S-2222); type: biochemical
T7 construct: purchased Athens Research and Technology, Athens, Ga., USA
T7 sequence (P00760 24-246): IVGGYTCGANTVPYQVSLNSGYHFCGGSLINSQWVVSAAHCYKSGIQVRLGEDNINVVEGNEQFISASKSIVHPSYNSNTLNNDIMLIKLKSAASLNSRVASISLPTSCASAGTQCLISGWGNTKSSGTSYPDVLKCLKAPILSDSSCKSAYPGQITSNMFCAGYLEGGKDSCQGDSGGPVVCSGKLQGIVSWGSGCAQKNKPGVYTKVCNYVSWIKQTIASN
Method: as §1, §2

thrombin = biological target: T8, thrombin (Homo sapiens, UniProt P00734); experiment: Specificity: effect on enzyme activity of thrombin (substrate S-2238); type: biochemical
T8 construct: Human plasmin, thrombin and plasma kallikrein were from Sigma; purchased Sigma
Method: as §1, §2

plasmin = biological target: T9, plasmin (Homo sapiens, UniProt P00747); experiment: Specificity: effect on enzyme activity of plasmin (substrate S-2403); type: biochemical
T9 construct: Human plasmin, thrombin and plasma kallikrein were from Sigma; purchased Sigma
T9 sequence (P00747 97-580 partner limits assumed): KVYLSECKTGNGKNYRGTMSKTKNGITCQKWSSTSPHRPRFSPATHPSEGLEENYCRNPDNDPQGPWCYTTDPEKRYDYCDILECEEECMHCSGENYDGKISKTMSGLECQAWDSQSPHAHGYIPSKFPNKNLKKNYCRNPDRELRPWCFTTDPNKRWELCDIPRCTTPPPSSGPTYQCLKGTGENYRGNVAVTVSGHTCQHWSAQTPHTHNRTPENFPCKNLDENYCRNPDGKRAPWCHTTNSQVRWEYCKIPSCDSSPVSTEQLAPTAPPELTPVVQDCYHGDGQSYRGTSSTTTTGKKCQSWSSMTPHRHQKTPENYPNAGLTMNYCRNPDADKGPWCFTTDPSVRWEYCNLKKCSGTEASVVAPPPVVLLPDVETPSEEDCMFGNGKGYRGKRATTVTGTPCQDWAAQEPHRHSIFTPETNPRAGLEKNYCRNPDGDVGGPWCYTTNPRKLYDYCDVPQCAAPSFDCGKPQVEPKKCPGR
T9 sequence (P00747 581-810 limits assumed): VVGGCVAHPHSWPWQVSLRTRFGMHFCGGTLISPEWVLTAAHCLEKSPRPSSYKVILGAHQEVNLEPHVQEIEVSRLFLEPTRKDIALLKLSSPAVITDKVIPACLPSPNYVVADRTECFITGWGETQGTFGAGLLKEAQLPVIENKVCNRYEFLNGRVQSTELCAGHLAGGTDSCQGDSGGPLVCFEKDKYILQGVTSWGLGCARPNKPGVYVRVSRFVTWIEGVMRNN
Method: as §1, §2

hK2 [3] = biological target: T1, hK2; experiment: Effect of the peptides on the enzyme activity of hK2 (chromogenic substrate S-2302); type: biochemical; conditions: S-2302 200 μM, 0.17 μM hK2, 0-400 μM peptide; read-out: IC50 for hK2 inhibition

With 15 (GPARRPFPVTAG) [compound 15] the “inhibition (percent inhibition of hK2)” value (hK2 [1]) was 49%.

For 31 (GPARRPFPVTAG) [compound 31], the “inhibition (percent inhibition of hK2)” value (hK2 [1]) was 58%.

With 55 (SRFKVWWAAG) [compound 55] the “inhibition (percent inhibition of hK2)” value (hK2 [1]) was 79%.

In the case of 57 (SRFKVWWAAG) [compound 57], the “inhibition (percent inhibition of hK2)” value (hK2 [1]) is reported as 27%.

With 63 (SRFKVWWAAG) [compound 63] the “inhibition (percent inhibition of hK2)” value (hK2 [1]) was 78%.

In the case of 64 (SRFKVWWAAG) [compound 64], the “inhibition (percent inhibition of hK2)” value (hK2 [1]) is reported as 85%.

In the case of 69 (SRFKVWWG) [compound 69], the “inhibition (percent inhibition of hK2)” value (hK2 [1]) is reported as 79%.

In the case of 73 (SRFKVWWG) [compound 73], the “inhibition (percent inhibition of hK2)” value (hK2 [1]) is reported as 82%.

AARRPFPAPS [HK2p02] was tested, and the “effect on activity of human trypsin 2” value (trypsin 2) was “no inhibition”, the “effect on activity of human trypsin 3” value (trypsin 3) was “no inhibition” and the “effect on activity of α-chymotrypsin” value (α-chymotrypsin) was “no inhibition”. The “effect on activity of human trypsin 1” value (human trypsin 1) was “no inhibition”, the “inhibition of the binding of the phage carrying the corresponding peptide” value (hK2 [2]) was “inhibited efficiently” and the “inhibition of hK2 enzyme activity” value (hK2 [1]) was “slight inhibition”. For the same substance, the “effect on the enzyme activity of hK2” value (hK2 [1]) was “significant reduction”, the “effect on activity of PSA” value (PSA) was “no inhibition” and the “effect on activity of plasma kallikrein” value (plasma kallikrein) was “no inhibition”. For the same substance, the “effect on activity of urokinase” value (urokinase) was “no inhibition”, the “effect on activity of bovine trypsin” value (bovine trypsin) was “no inhibition” and the “effect on activity of thrombin” value (thrombin) was “no inhibition”. The “effect on activity of plasmin” value (plasmin) was “no inhibition”.

With “ARFKVWWAAG [SEQ ID NO 56, A, R ,F, K, V, W, W, A, A, G]” the “type of inhibition of hK2” value (hK2 [1]; Lineweaver-Burke Plot) was “competitive inhibitor” and the IC50 (hK2 [3]) was 2200 nM.

With “C3AARRPAPAPCG (CAARRPAPAPCG; disulfide 1-11 (inferred)) [BTK144-18c]” the “effect of cyclic peptides on hK2 protease activity” value (hK2 [1]; FIG. 3) was “slight inhibitory effect”.

For CFRQGCWVIT [HK2p04], the “effect on the enzyme activity of hK2” value (hK2 [1]) was “did not show any effect”.

For CYRMPTCMQRD [HK2p06], the “inhibition of the binding of the phage carrying the corresponding peptide” value (hK2 [2]) was “inhibited efficiently” and the “effect on the enzyme activity of hK2” value (hK2 [1]) was “did not show any effect”.

With FRTCLRSWACM [HK2p05] the “inhibition of the binding of the phage carrying the corresponding peptide” value (hK2 [2]) was “not inhibited”.

With PARRPFPVTA [HK2p03] the “effect on activity of human trypsin 2” value (trypsin 2) was “no inhibition”, the “effect on activity of human trypsin 3” value (trypsin 3) was “no inhibition” and the “effect on activity of α-chymotrypsin” value (α-chymotrypsin) was “no inhibition”. For the same substance, the “effect on activity of human trypsin 1” value (human trypsin 1) was “no inhibition”, the “inhibition of the binding of the phage carrying the corresponding peptide” value (hK2 [2]) was “inhibited efficiently” and the “inhibition of hK2 enzyme activity” value (hK2 [1]) was “slight inhibition”. For the same substance, the “effect on the enzyme activity of hK2” value (hK2 [1]) was “significant reduction”, the “effect on activity of PSA” value (PSA) was “no inhibition” and the “effect on activity of plasma kallikrein” value (plasma kallikrein) was “no inhibition”. The “effect on activity of urokinase” value (urokinase) was “no inhibition”, the “effect on activity of bovine trypsin” value (bovine trypsin) was “no inhibition” and the “effect on activity of thrombin” value (thrombin) was “no inhibition”. The “effect on activity of plasmin” value (plasmin) was “no inhibition”.

With SRFKVWWAAG-OH [HK2p01, SRFKVWWAAG] the “effect on activity of human trypsin 2” value (trypsin 2) was “no inhibition”, the “effect on activity of human trypsin 3” value (trypsin 3) was “no inhibition” and the “effect on activity of α-chymotrypsin” value (α-chymotrypsin) was “no inhibition”. The “effect on activity of human trypsin 1” value (human trypsin 1) was “no inhibition”, the “inhibition of the binding of the phage carrying the corresponding peptide” value (hK2 [2]) was “inhibited efficiently” and the “inhibition of hK2 enzyme activity” value (hK2 [1]) was “slight inhibition”. For the same substance, the “effect on the enzyme activity of hK2” value (hK2 [1]) was “significant reduction”, the “effect on activity of PSA” value (PSA) was “no inhibition” and the “effect on activity of plasma kallikrein” value (plasma kallikrein) was “no inhibition”. For the same substance, the “effect on activity of urokinase” value (urokinase) was “no inhibition”, the “effect on activity of bovine trypsin” value (bovine trypsin) was “no inhibition” and the “effect on activity of thrombin” value (thrombin) was “no inhibition”. For the same substance, the “effect on activity of plasmin” value (plasmin) was “no inhibition”.

From patent publication US20090214427A1, “Novel peptides” (Licentia OY, priority 2004, published 2009)
